Assay results from patent publication US20140322218A1 (Amgen, published 2014).

Legend:
Assay in all cases: FACS, transfected 293T;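 also: antibody binding to chimera-expressing cells with 2 mM CaCl2 present, cell-bound Alexa647-labelled antibody read by flow cytometry, mock-transfected cells serving as control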
[1] = target: T1, ckCDH19(1-43)::FLAG::ckCDH19(44-249)::huCDH19(250-364)::ckCDH19(365-776), on 293T cells (human/chicken chimera)
T1 construct: Entry holds leader (1-43), Flag tag and CDH19 part; leader left out; also called Hu EC3 (chicken backbone)

[2] = target: T2, ckCDH19(1-43)::FLAG::ckCDH19(44-776), on 293T cells (chicken)
T2 construct: Entry holds leader (1-43), Flag tag and CDH19 part; leader left out; also called Ck EC1-5
T2 chain: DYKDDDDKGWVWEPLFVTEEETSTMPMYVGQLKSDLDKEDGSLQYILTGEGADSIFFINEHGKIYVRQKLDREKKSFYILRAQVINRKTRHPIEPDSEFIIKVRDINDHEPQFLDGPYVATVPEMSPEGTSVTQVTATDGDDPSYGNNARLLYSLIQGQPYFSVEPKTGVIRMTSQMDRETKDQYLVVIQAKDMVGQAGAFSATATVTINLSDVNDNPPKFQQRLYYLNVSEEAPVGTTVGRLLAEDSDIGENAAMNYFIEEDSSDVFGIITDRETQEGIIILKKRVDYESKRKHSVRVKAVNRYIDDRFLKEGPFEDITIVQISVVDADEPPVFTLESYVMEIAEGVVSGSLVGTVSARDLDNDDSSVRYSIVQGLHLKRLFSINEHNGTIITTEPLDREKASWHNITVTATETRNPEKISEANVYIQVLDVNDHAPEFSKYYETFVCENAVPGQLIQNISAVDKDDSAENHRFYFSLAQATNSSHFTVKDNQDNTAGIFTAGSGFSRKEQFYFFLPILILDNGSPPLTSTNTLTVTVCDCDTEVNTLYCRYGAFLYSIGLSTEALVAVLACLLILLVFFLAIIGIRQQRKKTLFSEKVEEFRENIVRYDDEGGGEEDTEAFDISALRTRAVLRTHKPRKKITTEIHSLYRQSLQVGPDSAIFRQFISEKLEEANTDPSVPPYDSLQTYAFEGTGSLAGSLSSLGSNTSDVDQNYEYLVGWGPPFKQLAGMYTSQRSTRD

[3] = target: T3, (1-43)::FLAG::ckCDH19(44-468)::huCDH19(464-772), on 293T cells (human/chicken chimera)
T3 construct: Entry holds leader (1-43), Flag tag and CDH19 part; leader left out; also called Hu EC5 (chicken backbone)
T3 chain: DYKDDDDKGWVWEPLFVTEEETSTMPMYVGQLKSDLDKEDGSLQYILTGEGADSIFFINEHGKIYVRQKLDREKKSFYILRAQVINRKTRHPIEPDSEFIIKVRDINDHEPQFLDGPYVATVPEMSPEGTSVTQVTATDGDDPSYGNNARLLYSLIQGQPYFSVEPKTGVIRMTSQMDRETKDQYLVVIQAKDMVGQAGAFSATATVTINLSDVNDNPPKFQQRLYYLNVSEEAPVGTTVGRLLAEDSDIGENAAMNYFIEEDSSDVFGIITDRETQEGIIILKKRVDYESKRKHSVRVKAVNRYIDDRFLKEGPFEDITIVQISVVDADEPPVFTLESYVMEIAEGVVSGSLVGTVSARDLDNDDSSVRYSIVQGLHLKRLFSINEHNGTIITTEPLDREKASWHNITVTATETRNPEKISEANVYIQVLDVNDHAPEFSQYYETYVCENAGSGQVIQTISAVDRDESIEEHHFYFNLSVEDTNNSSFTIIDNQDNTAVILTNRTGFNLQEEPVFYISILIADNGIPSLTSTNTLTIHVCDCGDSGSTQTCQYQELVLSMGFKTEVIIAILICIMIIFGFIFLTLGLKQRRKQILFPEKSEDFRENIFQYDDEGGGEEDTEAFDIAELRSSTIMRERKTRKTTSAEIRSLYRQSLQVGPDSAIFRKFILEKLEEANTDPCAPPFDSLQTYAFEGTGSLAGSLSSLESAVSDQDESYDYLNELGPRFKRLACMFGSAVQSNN

[4] = target: T4, huCDH19(44-772), Flag-tagged, on 293T cells (human, UniProt Q9H159 44-772)
T4 construct: Expressed with native leader (1-43) followed by a Flag tag; leader left out; also called Hu EC1-5

[5] = target: T5, ckCDH19(1-43)::FLAG::ckCDH19(44-141)::huCDH19(142-249)::ckCDH19(250-776), on 293T cells (human/chicken chimera)
T5 construct: Entry holds leader (1-43), Flag tag and CDH19 part; leader left out; also called Hu EC2 (chicken backbone)
T5 chain: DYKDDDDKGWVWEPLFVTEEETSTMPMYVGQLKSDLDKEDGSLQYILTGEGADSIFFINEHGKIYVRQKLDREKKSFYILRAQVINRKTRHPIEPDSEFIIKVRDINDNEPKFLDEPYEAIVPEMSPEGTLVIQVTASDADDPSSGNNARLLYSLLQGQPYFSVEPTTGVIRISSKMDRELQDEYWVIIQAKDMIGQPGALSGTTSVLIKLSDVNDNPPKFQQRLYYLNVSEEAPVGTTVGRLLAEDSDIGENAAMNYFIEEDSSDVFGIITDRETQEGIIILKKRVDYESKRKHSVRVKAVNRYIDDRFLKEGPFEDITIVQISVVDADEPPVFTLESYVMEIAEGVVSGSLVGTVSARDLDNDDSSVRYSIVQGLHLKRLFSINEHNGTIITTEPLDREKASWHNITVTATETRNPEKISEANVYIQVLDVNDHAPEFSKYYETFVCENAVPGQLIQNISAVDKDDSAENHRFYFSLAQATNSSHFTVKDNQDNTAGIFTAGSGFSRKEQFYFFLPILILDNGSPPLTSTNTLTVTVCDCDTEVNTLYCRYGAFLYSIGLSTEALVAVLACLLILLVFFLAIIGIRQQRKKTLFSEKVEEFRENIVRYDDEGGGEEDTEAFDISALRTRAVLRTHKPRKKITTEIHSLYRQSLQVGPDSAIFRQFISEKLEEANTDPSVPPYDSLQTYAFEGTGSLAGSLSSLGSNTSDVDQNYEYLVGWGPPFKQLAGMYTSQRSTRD

[6] = target: T6, huCDH19(1-43)::FLAG::hu(44-141)::ckCDH19(142-776), on 293T cells (human/chicken chimera)
T6 construct: Entry holds leader (1-43), Flag tag and CDH19 part; leader left out; also called Hu EC1 (chicken backbone)

B1: hu anti-<huCDH19> 4A9 VH::huIgG1z / 4A9 VL::huLLC-C1 (Ab ID 13589) (antibody, V domains shown)
VH: QVQLQESGPGLVKPSETLSLTCTVSGGSISGYYWSWIRQPPGKGLEWFAYFSYSGSTNYNPSLKSRVTLSVDTSKNQFSLKLSSVTAADTAVYYCARNWAFHFDFWGQGTLVTVSS
VL: QSVLTQPPSVSGAPGQRVTISCTGSSSNIGTGYAVHWYQQFPGTAPKLLIYGNNNRPSGVPDRFSGSKSGTSASLAITGLQAEDEADYYCQSYDSRLSGWVFGGGTKLTVLG
notes: Recombinant fully human IgG1
B1: no binding (tested: 5 ug/ml) [1]; no binding (tested: 5 ug/ml) [2]; no binding (tested: 5 ug/ml) [3]. B1: binds [4]; no binding (tested: 5 ug/ml) [5]; binds [6].

B2: anti-CDH19 antibody 2G6 (Ab ID 13588) (antibody, human IgG1, lambda, V domains shown)
VH: QVQLVESGGGVVQPGRSLRLSCAASGFTFSSYGMHWVRQAPGKGLEWVAFIWYDGSNKYYADSVKDRFTISRDNSKNTLYLQMKSLRAEDTAVYYCARRAGIIGTIGYYYGMDVWGQGTTVTVSS
VL: SYELTQPPSVSVSPGQTASITCSGDRLGEKYTCWYQQRPGQSPLLVIYQDTKRPSGIPERFSGSNSGNTATLTISGTQAMDEADYYCQAWDSSTVVFGGGTKLTVLG
B2: binds [1]; no binding (tested: 5 ug/ml) [2]; no binding (tested: 5 ug/ml) [3]. B2: binds [4]; no binding (tested: 5 ug/ml) [5]; no binding (tested: 5 ug/ml) [6].

B3: hu anti-<huCDH19> 25F8.1 (1-469)(F90Y) VH::huIgG1z / 25F8.1 (1-235)(K45Q,S102A,D111E) VL::huLLC-C2 (Ab ID 14096) (antibody, V domains shown)
VH: QVQLVQSGAEVKKPGASVKVSCKASGYTFTSYYIHWVRQAPGQGLEWMGIINPSGGSTRYAQKFQGRVTMTRDTSTSTVYMELSSLRSEDTAVYYCARGGIQLWLHFDYWGQGTLVTVSS
VL: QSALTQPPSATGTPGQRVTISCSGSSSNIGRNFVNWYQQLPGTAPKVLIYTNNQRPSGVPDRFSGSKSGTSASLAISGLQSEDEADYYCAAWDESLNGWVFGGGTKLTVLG
notes: Engineered variant of 25F8
B3: no binding (tested: 5 ug/ml) [1]; no binding (tested: 5 ug/ml) [2]; no binding (tested: 5 ug/ml) [3]. B3: binds [4]; no binding (tested: 5 ug/ml) [5]; binds [6].

B4: hu anti-<huCDH19> 26D1.1 VH::huIgG1z / 26D1.1 VL::huLLC-C2 (Ab ID 13882) (antibody, V domains shown)
VH: QVQLVQSGAEVKKPGASVKVSCKASRYTFTSYYMSWVRQAPGQGLEWMGIIHPSGGDTTYAQKFQGRVTMTGDTSTSTVYMELSSLRSEDTAVYYCARGGIKLWLHFDYWGQGTLVTVSS
VL: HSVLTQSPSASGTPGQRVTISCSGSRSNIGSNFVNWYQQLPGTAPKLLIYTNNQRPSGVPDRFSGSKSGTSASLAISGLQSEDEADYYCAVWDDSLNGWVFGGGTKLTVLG
B4: no binding (tested: 5 ug/ml) [1]; no binding (tested: 5 ug/ml) [2]; no binding (tested: 5 ug/ml) [3]. B4: binds [4]; no binding (tested: 5 ug/ml) [5]; binds [6].

B5: hu anti-<huCDH19> 4B10 VH::huIgG1z / 4B10 VL::huKLC (Ab ID 13590) (antibody, V domains shown)
VH: QVQLVESGGGVVQPGRSLRLSCAASGFTFSSYDMHWVRQAPGKGLEWVAVISYDGTNEYYADSVKGRFTISRDTSKNTLYLQMNSLRAEDTAVYYCARERYFDWSFDYWGQGTLVSVSS
VL: EIVLTQSPGTLSLSPGERATLSCRASQSVSNTYLAWYHQRPGQAPRLLIYGASSRATGIPDRFSGSGSGTDFALTISSLEPEDFAVYYCQQYSNSWTFGQGTKVEIKR
B5: binds [1]; no binding (tested: 5 ug/ml) [2]; no binding (tested: 5 ug/ml) [3]. B5: binds [4]; no binding (tested: 5 ug/ml) [5]; no binding (tested: 5 ug/ml) [6].

B6: hu anti-<huCDH19> 23A10.3 (1-474)(L92Q) VH::huIgG1z / 23A10.3 (1-231)(C42S) VL::huLLC-C2 (Ab ID 14077) (antibody, V domains shown)
VH: QVQLVESGGGVVQPGRSLRLSCAASGFTFSRYGIHWVRQAPGKGLEWVAVIWYDGSNKYYADSVKGRFTISRDNSKNTLYLQMNSLRAEDSAVYYCARRAGIPGTTGYYYGMDVWGQGTTVTVSS
VL: SYELTQPPSVSVSPGQTASITCSGDRLGEKYVSWYQQKPGQSPILVIYQDNKWPSGIPERFSGSNSGNTATLTISGTQAMDEADYYCQAWDSSTVVFGGGTKLTVLG
notes: Engineered variant of 23A10
B6: binds [1]; no binding (tested: 5 ug/ml) [2]; no binding (tested: 5 ug/ml) [3]. B6: binds [4]; no binding (tested: 5 ug/ml) [5]; no binding (tested: 5 ug/ml) [6].

B7: anti-CDH19 antibody 4A2 (Ab ID 13592) (antibody, human IgG1, kappa, V domains shown)
VH: QVQLQESGPGLVKPSQTLSLTCTVSGGSISSSGYYWSWIRQHPGKGLEWIGYIYYTGSAYYNPSLKSRVTISVDTSKNQFSLKLSSVTAADTAVYYCARDGSSGWYFQYWGQGTLVTVSS
VL: EIVLTQSPGTLSLSPGERATLSCRASRNISSSYLAWYQQKPGQAPRLLIYGPSSRATGIPDRFSGSGSGTDFTLTISRLEPEDFTVYYCQQYGSSFTFGPGTKVDIKR
B7: no binding (tested: 5 ug/ml) [2]; no binding (tested: 5 ug/ml) [3]; no binding (tested: 5 ug/ml) [5]. B7: no binding (tested: 5 ug/ml) [6].
